Experiments:
Type in all cases: cell-based, human
HDF cells = assay: IL-8 production by P. acnes-stimulated HDF (ELISA); conditions: 0.87 to 7 μM
Procedure: For experiences of stimulation with P. acnes, cells were incubated with the P. acnes suspension adjusted at the appropriate concentration, pre-treated for 1 h at 37° C. or not with fibrinogen recombinant peptides Fg1 and Fg2 at the concentrations 0.87, 1.75, 3.5 or 7 μM for the desired period of time at 37° C. in 5% CO2.
Human IL-1ß, IL-8, IL-12, hBD-2, and TNF-α protein concentration was measured in the supernatants of stimulated cells using various ELISA Set kits (Ready-Set-Go kit from eBioscience for acne experiments, and for psoriasis experiments the Duo set IL-8 kit from R&D Systems and the BD-2 Human Development (hBD-2) from Peprotech) according to the manufacturer's instructions. We used serial dilutions of recombinant human IL-1ß, IL-8, IL-12 and TNF-α for standard curve. The optical density was determined at 450 nm at a wavelength correction of 540 nm.
To assess the efficacy of Fg1 recombinant peptide, the production of O2^∘− and H2O2 by HaCaT cells NHDK, THP-1, MRC5 and HDF stimulated by pretreated P. acnes strains 6919, RON and PIE was measured. The amount of ROS produced was compared to that produced by the stimulated cells with untreated bacteria. Production baseline was obtained by measuring ROS on unstimulated cells. The production of IL-1ß, IL-8, IL-12 and TNF-α was also measured in all conditions cited above. The measurement of the production of ROS is performed by spectrofluorimetry in the presence of specific fluorochromes directly on the monolayer cell. Measurement of cytokine production was performed in parallel on the cell culture supernatant.
Two sets of experiments were implemented: 1) The cells were stimulated (18 h at 37° C.) by P. acnes strains previously pretreated with Fg1 and Fg2 peptides at the final concentrations ranging from 0.87 to 7 μM for 1 h at 37° C.; and 2) The cells were pretreated first with Fg1 and Fg2 peptides at the final concentrations ranging from 0.87 to 7 μM for 24 h at 37° C. and stimulated (18 h at 37° C.) by P. acnes strains.

NHDK cells = assay: H2O2 production by keratinocytes stimulated by lipoteichoic acid (LTA); conditions: NHDK pre-treated 24 h with 1.75 to 7 μM, then LTA 10 μg/ml
Procedure: FIG. 18: Dose-dependent inhibition of H2O2 production by keratinocyte pre-treated by small Fg1-generated peptides and stimulated by lipoteichoic acid (LTA). NHDK cell were incubated for 24 h with recombinant peptide Fg1 (light gray bar) and Fg2 (dark gray bar) at concentrations ranging from 1.75 to 7 μM. Measurement of hydrogen peroxide production was realized by spectrofluorometry as described in Materials and Methods. Controls experiments were done with unstimulated NHDK cell (white bar) and HDF stimulated with LTA at 10 μg/ml (black bar). Data are means±S.D. of three separate experiments. Statistical significance is indicated by * (P<0.05), ** (P<0.01), *** (P<0.001), and **** (P<0.0001), respectively. […]
All cells lines (5·10^4 to 10^5 cells/well) were seeded in 96-well plates (Corning Costar, Brumath, France) and treated as previously described. After stimulation, cells were washed three times in PBS and incubated with 100 μl per wells of 5 μM DHE (for determination of O2^●−) or 5 μM H2-DCFDA (for determination of H2O2) for 30 min as described previously and fluorescence intensity was recorded every hour over a period of 5 h. Fluorescence excitation/emission maxima were for DHE: 480/610 nm and for H2-DCFDA: 507/525 nm. At the end of the experiment, the number of adherent cells was evaluated by the crystal violet assay as described below. […]

[1] = test system: HaCaT, NHDK, ThP1, MRC5 and HDF cell lines; assay: Cell viability (MTT) after treatment with Fg1 and Fg2 recombinant peptides; conditions: all 5 cell lines; 0.22 to 7 mM for 18 h at 37° C.
Procedure: FIG. 10: Evaluation of cell viability after treatment with the Fg1 and Fg2 recombinant peptides. Human immortalized and primary keratinocyte cell lines HaCaT and NHDK; immortalized monocytes cell line ThP1, and immortalized and primary fibroblast cell lines MRCS and HDF were incubated with Fg1 and Fg2 recombinant peptides with concentrations ranging from 0.22 to 7 mM for 18 h at 37° C. Cell viability was assessed using the MTT assay as described in Materials and Methods.
Crystal violet staining was used to determine the number of adherent cells in 96-well plates. Briefly, after incubation with the test compound, the culture medium was discarded and the cells were incubated with a 0.05% crystal violet solution (Sigma) for 30 min at room temperature. After washing with PBS, 100% methanol was added, and the absorbance was measured spectrophotometrically at 540 nm on an ELISA multiwell reader. The MTT ([…]) assay was performed to test cell viability in 96-well plates. […] After thorough mixing, the absorbance was measured at 540 nm.
Whole P. acnes bacteria are labelled by biotinylation, pre-treated or not with the peptides and contacted with the various cell lines. After removal of the unfixed bacteria, the adhesion activity was measured spectrophotometrically by using the streptavidin-peroxidase conjugate and a chromogenic substrate.

B1: MKRMVSWSFHKLKTMKHLLLLLLCVFLVKSQGVNDNEEGFFSARGHRPLDKKREEAPSLRPAPPPISGGGYRARPAKAAATQKKVERKAPDAGGCLHADPDLGVLC (protein)
chain: MKRMVSWSFHKLKTMKHLLLLLLCVFLVKSQGVNDNEEGFFSARGHRPLDKKREEAPSLRPAPPPISGGGRARPAKAAATQKKVERKAPDAGGCLHADPDLGVLCMKRMVSWSFHKLKTMKHLLLLLLCVFLVKSQGVNDNEEGFFSARGHRPLDKKREEAPSLRPAPPPISGGGYRARPAKAAATQKKVERKAPDAGGCLHADPDLGVLC
modifications: GST fusion; fragment Fg1
notes: fragment of Bß chain of human fibrinogen having 106 amino acids; recombinant GST-fused peptide expressed in E. coli
B1 was tested, and the “Inhibition of Interleukine 8 (IL-8) production” value (shortened to “Inhibition”) (HDF cells; P. acnes 6919, set I, bacteria first pretreated) was “pos”, the “Inhibition” value (HDF cells; P. acnes 6919, set II, cells first pretreated) was “pos” and the “Inhibition” value (HDF cells; P. acnes PIE, set I, bacteria first pretreated) was “pos”. For the same molecule, the “Inhibition” value (HDF cells; P. acnes PIE, set II, cells first pretreated) was “pos”, the “Inhibition” value (HDF cells; P. acnes RON, set I, bacteria first pretreated) was “pos” and the “Inhibition” value (HDF cells; P. acnes RON, set II, cells first pretreated) was “pos”. The “Decrease of H2O2 production by LTA-stimulated cells” value (NHDK cells) was “significantly decreases production of H2O2” and the “Cytotoxic activity (cell viability, MTT)” value [1] was “no cytotoxic activity”.

Source: US10323078B2, “Isolated peptides and fragments thereof from fibrinogen for use as drugs, particularly in skin inflammatory diseases” (Universite Paris Descartes, priority 2015, dated 2019)
